Test results: patent US20260078159A1 (CUGENE, published 2026)
Numbering of substitutions follows the chain as printed. Names may count otherwise. “And” between values parts separate entries of the source, which are not always exact repeats. Equal entries are not always repeated. Where two headings read alike, the source gives them in different places. One block for each binder: values may come before it.

Assays:
[1] = biological target: T1, human PD1 on cells (human, UniProt Q15116 25-288); test: cell-based or functional assay
[2] = biological target: T2, recombinant human PD1 protein (human, UniProt Q15116 25-170, limits assumed); test: binding ELISA, plate-coated recombinant human PD1
Method: Antibodies of the invention were tested for their antigen binding activity by well-known methods such as enzyme-linked immunosorbent assay (ELISA). Briefly, Nunc Maxisorp plates (ThermoFisher) were coated with recombinant human PD1 protein in bicarbonate buffer, pH 9.4 (ThermoFisher), overnight at 4° C., using 1 μg of antigen per well (100 μL/well). After triple washing with PBS/0.05% Tween 20, plates were incubated with SuperBlock (ThermoFisher) for two hours at room temperature to block nonspecific binding. The PD1 antibodies, serially diluted three-fold with blocking buffer (PBS with 1% bovine serum albumin) were added to the plates (100 μL/well) post washing and incubated at room temperature for one hour. After another washing, antibodies were detected by incubating with a horseradish peroxidase (HRP)-conjugated goat anti-human IgG Fc antibody (ThermoFisher) diluted 1:5000 in blocking buffer (100 μL/well) for one hour at room temperature. After a final wash, TMB substrate (ThermoFisher) at 100 μL/well was added. Plates were sealed and left to incubate in dark for 5-20 minutes. The reaction was stopped by adding 2N sulfuric acid (Ricca Chemical) (50 μL/well), and the absorbance was measured at 450 nm with a plate reader. The curves were plotted, and the half-maximal effective concentration (EC₅₀) values were calculated using GraphPad Prism software.

[3] = biological target: T1, human PD1 on cells; test: cell-based or functional assay; remark: listed apart in the source
[4] = biological target: T1, human PD1 on cells; test: cell-based or functional assay; remark: listed apart in the source
[5] = biological target: T1, human PD1 on cells; test: flow cytometry on PD1+ HEK293 cells, % positive cells
Method: (§1) Additionally, HEK 293T cells stably expressing human PD1 gene (Crown Bioscience) was used to determine the cell-based binding strength of the optimized PD1 antibodies by flow cytometry. After harvesting, HEK293-hPD1 cells were seeded into a 96-well U-bottom plate at 1×10⁵ cells/well (100 μL), incubated with Fc block (1:50) for 20 minutes at 4° C., and subsequently washed with FACS buffer (PBS, 1% FBS). Cells were then treated with three-fold serial dilutions of each antibody at concentrations ranging from 0.01-100 nM in FACS buffer for 30 minutes at 4° C. Subsequently, cells were washed twice with FACS buffer to remove unbound molecules, and 40 µL of the 1:100 diluted PE-labeled goat anti-human Fc secondary antibody (eBiosciences) was added to the cells. Following a 30-minute incubation at 4° C. and another double wash with FACS buffer, antibodies bound to the cells were detected with PE-labeled secondary antibody by flow cytometry (BD ACCURI-C6), and EC₅₀ values were calculated using GraphPad Prism software.

[6] = biological target: T1, human PD1 on cells; test: flow cytometry on PD1+ HEK293 cells, MFI
Method: as §1

[7] = biological target: T2, recombinant human PD1 protein; test: competition ELISA, PD1 coated, biotinylated human PD-L1-Fc at 0.5 µg/mL as competitor
Method: A non-targeting germline antibody, P-1260 (SEQ ID NOS: 171, 172 and 173) was included as the negative control. The binding ELISA procedures were outlined in Example 3. The competition ELISA followed a similar protocol. […] After 1-hour incubation at 37° C., HRP-conjugated Streptavidin (ThermoFisher) diluted to 0.1 μg/ml were added to the plate and incubate at 37° C. for 1 hour. The plate was subsequently developed using TMB (ThermoFisher) substrate. Absorbance readings were taken at 450 nm, with 630 nm as the reference wavelength. The half-maximal inhibitory concentrations (IC50) values were deduced using GraphPad Prism software.

T1 sequence (Q15116 25-288 limits assumed): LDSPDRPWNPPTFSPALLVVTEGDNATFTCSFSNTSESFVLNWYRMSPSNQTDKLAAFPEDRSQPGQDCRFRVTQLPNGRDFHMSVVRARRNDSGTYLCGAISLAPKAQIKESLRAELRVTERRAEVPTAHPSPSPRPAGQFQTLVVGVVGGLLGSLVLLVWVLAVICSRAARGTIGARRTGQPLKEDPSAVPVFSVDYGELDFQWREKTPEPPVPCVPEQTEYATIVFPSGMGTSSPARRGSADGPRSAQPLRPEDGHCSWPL
T2 sequence (Q15116 25-170 limits assumed): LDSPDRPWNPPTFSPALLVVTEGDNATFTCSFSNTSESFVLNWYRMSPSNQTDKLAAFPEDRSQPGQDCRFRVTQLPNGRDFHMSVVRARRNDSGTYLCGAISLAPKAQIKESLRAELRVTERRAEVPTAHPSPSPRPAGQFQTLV

B1: P-1148 (antibody, human IgG1, kappa, V domains shown)
VH: QVQLVQSGVEVKKPGASVKVSCKASGYTFTNYYMYWVRQAPGQGLEWMGGINPSNGGTNFAQKFQGRVTLTTDSSTTTAYMELKSLQFDDTAVYYCARRDYRFDMGFDYWGQGTTVTVSS
VL: EIVLTQSPATLSLSPGERATLSCRASQGVSTSGYSYLHWYQQKPGQAPRLLIYLASYRASGVPARFSGSGSGTDFTLTISSLEPEDFAVYYCQHSRDLPLTFGGGTKVEIKR
notes: Full-length IgG1 L234A/L235A/G237A, kappa
- PD1 blocking activity (reporter assay) EC50 [1]: 1.56 nM
- PD1 blocking activity (reporter assay) Fold induction [1]: 4.63 fold
- PD1 blocking activity (reporter assay) Vmax [1]: 48200 RLU
- EC50 [2]: 0.093 nM

B2: P-1127 (antibody, human IgG1, kappa, V domains shown)
VH: B1 VH with A61N, Q62E, Q65K, G66N
VL: B1 VL with A59E
- PD1 blockade reporter assay EC50 [3]: 0.39 nM and 0.54 nM

B3: P-1175 (antibody, human IgG1, kappa, V domains shown)
VH: EVQLLESGGGLVQPGGSLRLSCAASGFTFTNYYMYWVRQAPGKGLEWVSGINPSNGGTNYADKFKGRFTISRDNSKNTLYLQMNSLRAEDTAVYYCARRDYRFDMGFDYWGQGTLVTVSS
VL: B1 VL with Q27K, R58L, A59E
- PD1 blocking activity (reporter assay) EC50 [4]: 6.21 nM
- PD1 blocking activity (reporter assay) Fold induction [4]: 4.07 fold
- PD1 blocking activity (reporter assay) Vmax [4]: 42000 RLU
- decrease in Emax and fold induction compared to P-0734 [3]: 25%
- reduction in potency (EC50) compared to P-0734 [3]: 10 fold

B4: P-1177 (antibody, human IgG1, kappa, V domains shown)
VH: B3 VH with V48M, S49G
VL: B1 VL with Q27K, R58L, A59E
- PD1 blocking activity (reporter assay) EC50 [4]: 1.51 nM
- PD1 blocking activity (reporter assay) Fold induction [4]: 4.77 fold
- PD1 blocking activity (reporter assay) Vmax [4]: 48100 RLU

B6: P-1178 (antibody, human IgG1, kappa, V domains shown)
VH: B3 VH with V48M, S49G, I70L, R72T, N74S
VL: B1 VL with Q27K, R58L, A59E
- PD1 blocking activity (reporter assay) EC50 [4]: 0.68 nM
- PD1 blocking activity (reporter assay) Fold induction [4]: 5.5 fold
- PD1 blocking activity (reporter assay) Vmax [4]: 53100 RLU

B7: P-1238 (antibody, human IgG1, kappa, V domains shown)
VH: B3 VH with V48M, S49G, I70L, R72T, N74S
VL: B1 VL with A59E
- PD1 blockade reporter assay EC50 [3]: 0.73 nM

B10: P-1198 (antibody, human IgG1, kappa, V domains shown)
VH: B3 VH with Y60F, N74S
VL: B1 VL with A59E
notes: as for B1
- EC50 [5]: 0.019 nM
- EC50 [6]: 0.087 nM

B11: P-1271 (antibody, human IgG1, kappa, V domains shown)
VH: B1 VH with V9A, T77S, K84S, Q87R, F88S, T115L
VL: B1 VL with A59E
- PD1 blockade reporter assay EC50 [3]: 0.66 nM
- EC50 [2]: 0.0268 nM
- IC50 [7]: 1.42 nM

B14: P-1153 (antibody, human IgG1, kappa, V domains shown)
VH: B1 VH with F60Y
VL: B1 VL with H38A
notes: as for B1
- PD1 blocking activity (reporter assay) EC50 [1]: 9.88 nM
- PD1 blocking activity (reporter assay) Fold induction [1]: 3.04 fold
- PD1 blocking activity (reporter assay) Vmax [1]: 30800 RLU
- decrease in PD1 blockade potency (EC50) compared to P-0734 [3]: ~20 fold
- EC50 [2]: 0.11 nM

B18: P-1199 (antibody, human IgG1, kappa, V domains shown)
VH: B3 VH with Y60F, R72T, N74S
VL: B1 VL with A59E
notes: as for B1
- EC50 [5]: 0.016 nM
- EC50 [6]: 0.12 nM

Continued, values first:

- PD1 blocking activity (reporter assay) EC50 [4]: 0.67 nM
- PD1 blocking activity (reporter assay) Fold induction [4]: 5.27 fold
- PD1 blocking activity (reporter assay) Vmax [4]: 52100 RLU
B5: P-1176 (antibody, human IgG1, kappa, V domains shown)
VH: B3 VH with I70L, R72T, N74S
VL: B1 VL with Q27K, R58L, A59E

- PD1 blocking activity (reporter assay) EC50 [4]: 9.18 nM
- PD1 blocking activity (reporter assay) Fold induction [4]: 3.26 fold
- PD1 blocking activity (reporter assay) Vmax [4]: 29600 RLU
- drop in potency compared to P-0734 [3]: 15 fold
B8: P-1181 (antibody, human IgG1, kappa, V domains shown)
VH: B3 VH with Y60F, A61N, K63S, F64V
VL: B1 VL with Q27K, R58L, A59E

- PD1 blockade reporter assay EC50 [3]: 0.58 nM
B9: P-1129 (antibody, human IgG1, kappa, V domains shown)
VH: B1 VH with A61N, Q62E, Q65K, G66N
VL: B1 VL

- EC50 [5]: 0.033 nM
- PD1 blockade reporter assay EC50 [3]: 1.28 nM
- EC50 [6]: 0.159 nM
B12: P-1201 (antibody, human IgG1, kappa, V domains shown)
VH: B3 VH with Y60F, I70L, R72T, N74S
VL: B1 VL with A59E

- PD1 blocking activity (reporter assay) EC50 [1]: 5.55 nM
- PD1 blocking activity (reporter assay) Fold induction [1]: 3.49 fold
- PD1 blocking activity (reporter assay) Vmax [1]: 36500 RLU
- EC50 [2]: 0.088 nM
B13: P-1150 (antibody, human IgG1, kappa, V domains shown)
VH: B1 VH
VL: B1 VL with H38A
notes: as for B1

- EC50 [5]: 0.07 nM
- EC50 [6]: 0.259 nM
B15: P-1193 (antibody, human IgG1, kappa, V domains shown)
VH: B3 VH with Y60F
VL: B1 VL with A59E
notes: as for B1

- PD1 blocking activity (reporter assay) EC50 [1]: 2.83 nM
- PD1 blocking activity (reporter assay) Fold induction [1]: 4.15 fold
- PD1 blocking activity (reporter assay) Vmax [1]: 44300 RLU
- EC50 [2]: 0.065 nM
B16: P-1151 (antibody, human IgG1, kappa, V domains shown)
VH: B1 VH with F60Y
VL: B1 VL
notes: as for B1

- PD1 blockade reporter assay EC50 [3]: 0.67 nM
B17: P-1174 (antibody, human IgG1, kappa, V domains shown)
VH: B1 VH
VL: B1 VL with A59E
